In patent US20100260668A1 (published 2010) one finds Kd, koff and kon data, which are given here for 14 molecules.

This test addresses T1, DLL4 ECD His tag (UniProt Q9NR61 27-529, limits assumed).
T1 construct: extracellular domain; also called DLL ECD His tag
The experiment in a line: SPR (Biacore), DVD-Ig captured, DLL4 as analyte.

B1: DVD489 (bispecific antibody, human IgG1, kappa, L234A L235A)
heavy: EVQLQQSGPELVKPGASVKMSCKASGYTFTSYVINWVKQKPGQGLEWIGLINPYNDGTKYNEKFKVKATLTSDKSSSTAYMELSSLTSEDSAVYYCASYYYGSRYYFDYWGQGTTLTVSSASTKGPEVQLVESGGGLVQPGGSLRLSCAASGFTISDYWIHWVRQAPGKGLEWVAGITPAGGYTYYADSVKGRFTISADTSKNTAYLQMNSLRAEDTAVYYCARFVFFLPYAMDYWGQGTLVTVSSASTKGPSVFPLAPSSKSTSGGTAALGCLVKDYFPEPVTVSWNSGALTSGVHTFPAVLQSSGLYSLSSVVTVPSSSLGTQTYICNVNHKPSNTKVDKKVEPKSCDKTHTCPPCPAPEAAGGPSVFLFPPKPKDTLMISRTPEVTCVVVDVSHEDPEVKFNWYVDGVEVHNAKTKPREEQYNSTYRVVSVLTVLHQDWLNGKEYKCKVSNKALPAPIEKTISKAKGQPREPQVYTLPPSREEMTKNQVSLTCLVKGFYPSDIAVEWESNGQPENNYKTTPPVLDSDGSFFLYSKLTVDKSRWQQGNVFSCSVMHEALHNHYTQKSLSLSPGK
light: DIQMTQSSSYLSVSLGGRVTITCKASDHINNWLAWYQQKPGNAPRLLISGATSLETGVPSRFSGSGSGKDYTLSITSLQTEDVATYYCQQYWSIPLTFGAGTKLELKRTVAAPDIQMTQSPSSLSASVGDRVTITCRASQDVSTAVAWYQQKPGKAPKLLIYSASFLYSGVPSRFSGSGSGTDFTLTISSLQPEDFATYYCQQSYTTPPTFGQGTKVEIKRTVAAPSVFIFPPSDEQLKSGTASVVCLLNNFYPREAKVQWKVDNALQSGNSQESVTEQDSKDSTYSLSSTLTLSKADYEKHKVYACEVTHQGLSSPVTKSFNRGEC
notes: HC linker short, LC linker short; also called DVD-Ig DVD489
As for B1, the Kd – broadly, the free concentration of one partner at which half of the binding sites on the other are occupied at equilibrium, for simple one-to-one binding – came out at 0.283 nM; the koff (usually a measure of how fast the partners let go of each other) worked out at 8.38e-05 s⁻¹; the kon (as a rule, the second-order rate constant of association) worked out at 296000 M⁻¹ s⁻¹.

B2: DVD513 (bispecific antibody, human IgG1, kappa)
heavy: not shown
light: QAVVTQESALTTSPGETVTLTCRSSTGAVTTSNYANWVQEKPDHLFTGLIGGTNNRAPGVPARFSGSLIGDKAALTITGAQTEDEAIYFCALWYSNHWVFGGGTKLTVLGQPKAAPDIQMTQSPSSLSASVGDRVTITCRASQDVSTAVAWYQQKPGKAPKLLIYSASFLYSGVPSRFSGSGSGTDFTLTISSLQPEDFATYYCQQSYTTPPTFGQGTKVEIKRTVAAPSVFIFPPSDEQLKSGTASVVCLLNNFYPREAKVQWKVDNALQSGNSQESVTEQDSKDSTYSLSSTLTLSKADYEKHKVYACEVTHQGLSSPVTKSFNRGEC
notes: HC linker short, LC linker short; also called DVD-Ig DVD513
B2 yielded a Kd of 2.5 nM, a koff of 0.000677 s⁻¹ and a kon of 271000 M⁻¹ s⁻¹.

B3: DVD525 (bispecific antibody, human IgG1, kappa)
heavy: not shown
light: QAVVTQESALTTSPGETVTLTCRSSTGAVTTSNYANWVQEKPDHLFTGLIGGTNNRAPGVPARFSGSLIGDKAALTITGAQTEDEAIYFCALWYSNHWVFGGGTKLTVLGQPKAAPDIQMTQSPSSLSASVGDRVTITCRASQDVSTAVAWYQQKPGKAPKLLIYSASFLYSGVPSRFSGSGSGTDFTLTISSLQPEDFATYYCQQSYTTPPTFGQGTKVEIKRTVAAPSVFIFPPSDEQLKSGTASVVCLLNNFYPREAKVQWKVDNALQSGNSQESVTEQDSKDSTYSLSSTLTLSKADYEKHKVYACEVTHQGLSSPVTKSFNRGEC
notes: HC linker long, LC linker short; also called DVD-Ig DVD525
On to B3, for which the dissociation constant (Kd) came to 2.57 nM, the koff is 0.00122 s⁻¹ and the kon was determined as 475000 M⁻¹ s⁻¹.

B4: DVD471 (bispecific antibody, human IgG1, kappa, L234A L235A)
heavy: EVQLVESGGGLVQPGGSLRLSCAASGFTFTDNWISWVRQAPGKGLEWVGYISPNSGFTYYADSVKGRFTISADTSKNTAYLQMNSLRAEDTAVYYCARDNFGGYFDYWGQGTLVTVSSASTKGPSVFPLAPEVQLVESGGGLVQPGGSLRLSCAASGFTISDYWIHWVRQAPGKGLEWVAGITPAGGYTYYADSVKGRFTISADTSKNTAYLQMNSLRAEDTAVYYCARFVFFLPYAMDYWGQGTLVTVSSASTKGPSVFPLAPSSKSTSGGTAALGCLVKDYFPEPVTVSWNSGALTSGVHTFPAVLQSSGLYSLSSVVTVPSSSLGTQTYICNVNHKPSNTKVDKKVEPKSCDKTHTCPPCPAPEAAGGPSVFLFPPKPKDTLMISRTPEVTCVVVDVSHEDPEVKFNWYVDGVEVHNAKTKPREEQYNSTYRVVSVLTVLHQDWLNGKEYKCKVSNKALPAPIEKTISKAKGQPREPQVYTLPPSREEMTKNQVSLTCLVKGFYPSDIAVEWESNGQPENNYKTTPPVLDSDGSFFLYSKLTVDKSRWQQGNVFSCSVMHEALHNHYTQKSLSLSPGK
light: DIQMTQSPSSLSASVGDRVTITCRASQDVSTAVAWYQQKPGKAPKLLIYSASFLYSGVPSRFSGSGSGTDFTLTISSLQPEDFATTYYCQQSYTGTVTFGQGTKVEIKRTVAAPSVFIFPPDIQMTQSPSSLSASVGDRVTITCRASQDVSTAVAWYQQKPGKAPKLLIYSASFLYSGVPSRFSGSGSGTDFTLTISSLQPEDFATYYCQQSYTTPPTFGQGTKVEIKRTVAAPSVFIFPPSDEQLKSGTASVVCLLNNFYPREAKVQWKVDNALQSGNSQESVTEQDSKDSTYSLSSTLTLSKADYEKHKVYACEVTHQGLSSPVTKSFNRGEC
notes: HC linker long, LC linker long; also called DVD-Ig DVD471
The molecule B4 registered a Kd of 0.672 nM, an off-rate (koff) of 0.000252 s⁻¹ and a kon of 376000 M⁻¹ s⁻¹.

B5: DVD483 (bispecific antibody, human IgG1, kappa)
heavy: not shown
light: DIQMTQSPSSLSASVGDRVTITCRASQDVSTAVAWYQQKPGKAPKLLIYSASFLYSGVPSRFSGSGSGTDFTLTISSLQPEDFATTYYCQQSYTGTVTFGQGTKVEIKRTVAAPSVFIFPPDIQMTQSPSSLSASVGDRVTITCRASQDVSTAVAWYQQKPGKAPKLLIYSASFLYSGVPSRFSGSGSGTDFTLTISSLQPEDFATYYCQQSYTTPPTFGQGTKVEIKRTVAAPSVFIFPPSDEQLKSGTASVVCLLNNFYPREAKVQWKVDNALQSGNSQESVTEQDSKDSTYSLSSTLTLSKADYEKHKVYACEVTHQGLSSPVTKSFNRGEC
notes: HC linker short, LC linker long; also called DVD-Ig DVD483
For B5, the Kd came out at 0.334 nM, the koff is 0.000139 s⁻¹ and the kon worked out at 416000 M⁻¹ s⁻¹.

B6: DVD443 (bispecific antibody, human IgG1, kappa)
heavy: not shown
light: DIVMTQSPDSLAVSLGERATISCRASESVDNYGISFMKWFQQKPGQPPKLLIYAASNQGSGVPDRFSGSGSGTDFTLTISSLQAEDVAVYYCQQSKEVPWTFGGGTKVEIKRTVAAPDIQMTQSPSSLSASVGDRVTITCRASQDVSTAVAWYQQKPGKAPKLLIYSASFLYSGVPSRFSGSGSGTDFTLTISSLQPEDFATYYCQQSYTTPPTFGQGTKVEIKRTVAAPSVFIFPPSDEQLKSGTASVVCLLNNFYPREAKVQWKVDNALQSGNSQESVTEQDSKDSTYSLSSTLTLSKADYEKHKVYACEVTHQGLSSPVTKSFNRGEC
notes: HC linker short, LC linker short; also called DVD-Ig DVD443
Take B6: binding was put at a Kd of 4.11 nM, the koff amounted to 0.000596 s⁻¹ and the kon was determined as 145000 M⁻¹ s⁻¹.

B7: DVD455 (bispecific antibody, human IgG1, kappa)
heavy: not shown
light: DIVMTQSPDSLAVSLGERATISCRASESVDNYGISFMKWFQQKPGQPPKLLIYAASNQGSGVPDRFSGSGSGTDFTLTISSLQAEDVAVYYCQQSKEVPWTFGGGTKVEIKRTVAAPDIQMTQSPSSLSASVGDRVTITCRASQDVSTAVAWYQQKPGKAPKLLIYSASFLYSGVPSRFSGSGSGTDFTLTISSLQPEDFATYYCQQSYTTPPTFGQGTKVEIKRTVAAPSVFIFPPSDEQLKSGTASVVCLLNNFYPREAKVQWKVDNALQSGNSQESVTEQDSKDSTYSLSSTLTLSKADYEKHKVYACEVTHQGLSSPVTKSFNRGEC
notes: HC linker long, LC linker short; also called DVD-Ig DVD455
For the molecule B7, binding was put at a Kd of 4.7 nM, the koff amounted to 0.000604 s⁻¹ and the kon was determined as 129000 M⁻¹ s⁻¹.

B8: DVD510 (bispecific antibody, human IgG1, kappa)
heavy: not shown
light: DIQMTQSPSSLSASVGDRVTITCRASQVIRRSLAWYQQKPGKAPKLLIYAASNLASGVPSRFSGSGSGTDFTLTISSLQPEDFATYYCQQSNTSPLTFGQGTKVEIKRTVAAPSVFIFPPDIQMTQSSSYLSVSLGGRVTITCKASDHINNWLAWYQQKPGNAPRLLISGATSLETGVPSRFSGSGSGKDYTLSITSLQTEDVATYYCQQYWSIPLTFGAGTKLELKRTVAAPSVFIFPPSDEQLKSGTASVVCLLNNFYPREAKVQWKVDNALQSGNSQESVTEQDSKDSTYSLSSTLTLSKADYEKHKVYACEVTHQGLSSPVTKSFNRGEC
notes: Outer AB071 (VEGF), inner AB072 (DLL4); HC linker short, LC linker long; also called DVD-Ig DVD510
Molecule B8 displayed a Kd of 1.55 nM, a koff of 8.84e-05 s⁻¹ and a kon of 56900 M⁻¹ s⁻¹.

B9: DVD465 (bispecific antibody, human IgG1, kappa)
heavy: not shown
light: DIQMTQSPSSLSASVGDRVTITCRASQDVSTAVAWYQQKPGKAPKLLIYSASFLYSGVPSRFSGSGSGTDFTLTISSLQPEDFATTYYCQQSYTGTVTFGQGTKVEIKRTVAAPDIQMTQSPSSLSASVGDRVTITCRASQDVSTAVAWYQQKPGKAPKLLIYSASFLYSGVPSRFSGSGSGTDFTLTISSLQPEDFATYYCQQSYTTPPTFGQGTKVEIKRTVAAPSVFIFPPSDEQLKSGTASVVCLLNNFYPREAKVQWKVDNALQSGNSQESVTEQDSKDSTYSLSSTLTLSKADYEKHKVYACEVTHQGLSSPVTKSFNRGEC
notes: HC linker short, LC linker short; also called DVD-Ig DVD465
B9 showed a Kd of 0.205 nM, a koff of 0.000164 s⁻¹ and a kon of 797000 M⁻¹ s⁻¹.

B10: DVD477 (bispecific antibody, human IgG1, kappa, L234A L235A)
heavy: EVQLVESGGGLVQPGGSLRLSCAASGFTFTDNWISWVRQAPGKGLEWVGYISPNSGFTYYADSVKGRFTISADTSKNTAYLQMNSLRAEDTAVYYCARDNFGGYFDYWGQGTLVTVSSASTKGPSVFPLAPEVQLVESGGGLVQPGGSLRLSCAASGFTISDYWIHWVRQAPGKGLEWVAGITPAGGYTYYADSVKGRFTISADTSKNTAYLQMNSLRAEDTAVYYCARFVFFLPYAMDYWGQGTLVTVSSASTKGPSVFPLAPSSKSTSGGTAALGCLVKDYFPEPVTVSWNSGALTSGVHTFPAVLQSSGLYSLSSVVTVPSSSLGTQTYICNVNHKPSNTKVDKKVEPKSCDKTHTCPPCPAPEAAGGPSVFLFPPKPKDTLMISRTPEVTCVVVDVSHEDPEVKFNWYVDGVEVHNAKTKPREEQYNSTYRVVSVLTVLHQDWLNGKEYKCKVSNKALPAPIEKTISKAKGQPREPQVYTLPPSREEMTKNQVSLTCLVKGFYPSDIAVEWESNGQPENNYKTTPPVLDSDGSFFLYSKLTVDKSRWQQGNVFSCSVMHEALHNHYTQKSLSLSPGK
light: DIQMTQSPSSLSASVGDRVTITCRASQDVSTAVAWYQQKPGKAPKLLIYSASFLYSGVPSRFSGSGSGTDFTLTISSLQPEDFATTYYCQQSYTGTVTFGQGTKVEIKRTVAAPDIQMTQSPSSLSASVGDRVTITCRASQDVSTAVAWYQQKPGKAPKLLIYSASFLYSGVPSRFSGSGSGTDFTLTISSLQPEDFATYYCQQSYTTPPTFGQGTKVEIKRTVAAPSVFIFPPSDEQLKSGTASVVCLLNNFYPREAKVQWKVDNALQSGNSQESVTEQDSKDSTYSLSSTLTLSKADYEKHKVYACEVTHQGLSSPVTKSFNRGEC
notes: HC linker long, LC linker short; also called DVD-Ig DVD477
With B10, the Kd was 0.306 nM, the koff was determined as 0.000165 s⁻¹ and the kon came to 540000 M⁻¹ s⁻¹.

B11: DVD449 (bispecific antibody, human IgG1, kappa)
heavy: not shown
light: DIVMTQSPDSLAVSLGERATISCRASESVDNYGISFMKWFQQKPGQPPKLLIYAASNQGSGVPDRFSGSGSGTDFTLTISSLQAEDVAVYYCQQSKEVPWTFGGGTKVEIKRTVAAPSVFIFPPDIQMTQSPSSLSASVGDRVTITCRASQDVSTAVAWYQQKPGKAPKLLIYSASFLYSGVPSRFSGSGSGTDFTLTISSLQPEDFATYYCQQSYTTPPTFGQGTKVEIKRTVAAPSVFIFPPSDEQLKSGTASVVCLLNNFYPREAKVQWKVDNALQSGNSQESVTEQDSKDSTYSLSSTLTLSKADYEKHKVYACEVTHQGLSSPVTKSFNRGEC
notes: HC linker long, LC linker long; also called DVD-Ig DVD449
With B11, the Kd was found to be 4.81 nM, the koff stood at 0.000584 s⁻¹ and the kon is 121000 M⁻¹ s⁻¹.

B12: DVD461 (bispecific antibody, human IgG1, kappa)
heavy: not shown
light: DIVMTQSPDSLAVSLGERATISCRASESVDNYGISFMKWFQQKPGQPPKLLIYAASNQGSGVPDRFSGSGSGTDFTLTISSLQAEDVAVYYCQQSKEVPWTFGGGTKVEIKRTVAAPSVFIFPPDIQMTQSPSSLSASVGDRVTITCRASQDVSTAVAWYQQKPGKAPKLLIYSASFLYSGVPSRFSGSGSGTDFTLTISSLQPEDFATYYCQQSYTTPPTFGQGTKVEIKRTVAAPSVFIFPPSDEQLKSGTASVVCLLNNFYPREAKVQWKVDNALQSGNSQESVTEQDSKDSTYSLSSTLTLSKADYEKHKVYACEVTHQGLSSPVTKSFNRGEC
notes: HC linker short, LC linker long; also called DVD-Ig DVD461
Regarding B12, the affinity, expressed as Kd, was 4.69 nM; the koff is 0.000538 s⁻¹; the on-rate constant (kon) worked out at 115000 M⁻¹ s⁻¹.

B13: DVD519 (bispecific antibody, human IgG1, kappa, lambda)
heavy: not shown
light: QAVVTQESALTTSPGETVTLTCRSSTGAVTTSNYANWVQEKPDHLFTGLIGGTNNRAPGVPARFSGSLIGDKAALTITGAQTEDEAIYFCALWYSNHWVFGGGTKLTVLGQPKAAPSVTLFPPDIQMTQSPSSLSASVGDRVTITCRASQDVSTAVAWYQQKPGKAPKLLIYSASFLYSGVPSRFSGSGSGTDFTLTISSLQPEDFATYYCQQSYTTPPTFGQGTKVEIKRTVAAPSVFIFPPSDEQLKSGTASVVCLLNNFYPREAKVQWKVDNALQSGNSQESVTEQDSKDSTYSLSSTLTLSKADYEKHKVYACEVTHQGLSSPVTKSFNRGEC
notes: HC linker long, LC linker long; also called DVD-Ig DVD519
As for B13, the Kd came to 2.83 nM, the off-rate (koff) stood at 0.000472 s⁻¹ and the kon worked out at 167000 M⁻¹ s⁻¹.

B14: DVD531 (bispecific antibody, human IgG1, kappa, lambda)
heavy: not shown
light: QAVVTQESALTTSPGETVTLTCRSSTGAVTTSNYANWVQEKPDHLFTGLIGGTNNRAPGVPARFSGSLIGDKAALTITGAQTEDEAIYFCALWYSNHWVFGGGTKLTVLGQPKAAPSVTLFPPDIQMTQSPSSLSASVGDRVTITCRASQDVSTAVAWYQQKPGKAPKLLIYSASFLYSGVPSRFSGSGSGTDFTLTISSLQPEDFATYYCQQSYTTPPTFGQGTKVEIKRTVAAPSVFIFPPSDEQLKSGTASVVCLLNNFYPREAKVQWKVDNALQSGNSQESVTEQDSKDSTYSLSSTLTLSKADYEKHKVYACEVTHQGLSSPVTKSFNRGEC
notes: HC linker short, LC linker long; also called DVD-Ig DVD531
For B14, the Kd worked out at 3.47 nM, the koff turned out to be 0.000858 s⁻¹ and the kon worked out at 248000 M⁻¹ s⁻¹.
